The Human Domainome abundance scans (Beltran et al. 2025)
± gives the uncertainty stated by the source.

B1: Zinc finger homeobox protein 4, residues 2562 to 2617; numbered along this chain, Q86UP3 (parent)
chain: RLRTTITPEQLEILYEKYLLDSNPTRKMLDHIAREVGLKKRVVQVWFQNTRARERK
B2: RAS guanyl-releasing protein 1, residues 539 to 593; numbered along this chain, O95267 (parent)
chain: GFPHNFQETTYLKPTFCDNCAGFLWGVIKQGYRCKDCGMNCHKQCKDLVVFECKK

Variants of: B1
Assay: abundance fitness (aPCA) (normalised: wild type 0, dead -1); higher = more abundant; growth selection in yeast, the domain comes from the species named
Details: Homo sapiens

Variant	abundance fitness
A52N	0.189 ± 0.13
A52H	-0.172 ± 0.071
A52K	-0.086 ± 0.13
A52S	-0.197 ± 0.099
A52L	-0.226 ± 0.069
A52F	-0.498 ± 0.28
A52C	-0.702 ± 0.24
A52Q	-0.035 ± 0.064
A52V	-0.327 ± 0.05
A52P	-0.693 ± 0.15
A52E	0.283 ± 0.077
A52T	-0.372 ± 0.08
A52M	-0.268 ± 0.11
A52R	-0.321 ± 0.071
A52G	-0.096 ± 0.054
A52Y	-0.781 ± 0.47
A52W	-0.347 ± 0.078
A52D	0.384 ± 0.056
R51S	0.086 ± 0.067
R51L	0.234 ± 0.086
R51M	-0.021 ± 0.067
R51Y	-0.192 ± 0.1
R51A	0.17 ± 0.053
R51E	-0.15 ± 0.12
R51K	0.039 ± 0.081

Variant	abundance fitness
R51I	0.134 ± 0.064
R51T	-0.242 ± 0.084
R51G	-0.151 ± 0.068
R51F	-0.08 ± 0.07
R51H	0.32 ± 0.092
R51N	0.156 ± 0.15
R51W	0.057 ± 0.078
R51C	-0.267 ± 0.093
R51V	0.017 ± 0.076
R51P	-1.05 ± 0.26
F47Q	-1.18 ± 0.34
F47I	-0.765 ± 0.2
F47N	-0.905 ± 0.22
F47D	-0.46 ± 0.36
F47A	-0.983 ± 0.17
F47Y	-0.072 ± 0.11
F47K	-1 ± 0.27
F47T	-0.789 ± 0.11
F47H	-0.865 ± 0.44
F47E	-0.806 ± 0.07
F47P	-0.885 ± 0.17
F47L	-0.74 ± 0.1
F47R	-0.969 ± 0.077
F47W	0.049 ± 0.079
F47G	-0.913 ± 0.13

Variant	abundance fitness
F47V	-0.974 ± 0.1
R53W	-0.315 ± 0.077
R53D	0.226 ± 0.14
R53K	0.14 ± 0.1
R53A	-0.014 ± 0.07
R53I	-0.156 ± 0.16
R53G	0.054 ± 0.072
R53F	0.066 ± 0.1
R53Y	-0.62 ± 0.28
R53Q	0.145 ± 0.1
R53N	0.052 ± 0.13
R53H	0.104 ± 0.081
R53C	0.045 ± 0.097
R53M	0.077 ± 0.079
R53V	-0.03 ± 0.077
R53E	0.394 ± 0.065
R53L	0.039 ± 0.064
R53S	0.168 ± 0.072
R53T	0.021 ± 0.1
R53P	-0.373 ± 0.12
V45L	-0.111 ± 0.056
V45T	-0.045 ± 0.075
V45N	-0.384 ± 0.27
V45F	-0.738 ± 0.2
V45P	-0.754 ± 0.2

Variant	abundance fitness
V45R	-0.402 ± 0.069
V45I	-0.057 ± 0.14
V45K	-0.249 ± 0.11
V45H	-0.262 ± 0.27
V45S	-0.309 ± 0.1
V45W	-0.439 ± 0.11
V45G	-0.198 ± 0.083
V45Y	-0.036 ± 0.2
V45Q	-0.568 ± 0.21
V45E	0.535 ± 0.098
K56V	-0.282 ± 0.37
K56M	-0.023 ± 0.3
K56D	0.085 ± 0.34
K56G	0.184 ± 0.34
K56A	-0.241 ± 0.46
K56T	0.267 ± 0.15
K56I	-0.305 ± 0.5
K56E	0.273 ± 0.17
K56R	-0.701 ± 0.26
K56S	-0.043 ± 0.14
N49R	-0.477 ± 0.077
N49Q	-0.104 ± 0.09
N49M	0.029 ± 0.13
N49T	-0.102 ± 0.12
N49C	-0.282 ± 0.067

Variant	abundance fitness
N49I	0.12 ± 0.12
N49K	-0.489 ± 0.16
N49E	0.253 ± 0.1
N49H	-0.423 ± 0.16
N49A	0.043 ± 0.08
N49W	-0.422 ± 0.063
N49G	-0.182 ± 0.059
N49V	-0.125 ± 0.074
N49Y	-0.414 ± 0.17
N49S	-0.009 ± 0.072
N49L	-0.25 ± 0.062
N49D	-0.043 ± 0.1
N49P	-0.73 ± 0.23
Q48M	-0.16 ± 0.084
Q48Y	-0.168 ± 0.13
Q48D	0.392 ± 0.11
Q48I	-0.693 ± 0.34
Q48A	0.2 ± 0.093
Q48S	-0.049 ± 0.074
Q48L	-0.611 ± 0.12
Q48E	0.433 ± 0.07
Q48N	-0.216 ± 0.17
Q48K	-0.006 ± 0.098
Q48H	-0.139 ± 0.14
Q48T	0.008 ± 0.065

Variant	abundance fitness
Q48F	-0.389 ± 0.12
Q48P	-1.02 ± 0.29
Q48G	0.178 ± 0.079
Q48V	-0.152 ± 0.071
Q48C	-0.287 ± 0.091
Q48W	-0.556 ± 0.12
Q48R	-0.166 ± 0.07
T50R	0.08 ± 0.056
T50G	-0.367 ± 0.064
T50P	-0.738 ± 0.077
T50L	-0.137 ± 0.071
T50E	0.265 ± 0.11
T50V	-0.068 ± 0.071
T50H	-0.034 ± 0.12
T50W	-0.097 ± 0.086
T50A	0.041 ± 0.073
T50M	-0.094 ± 0.083
T50N	-0.127 ± 0.1
T50Y	-0.107 ± 0.21
T50S	0.06 ± 0.083
T50F	-0.069 ± 0.096
T50C	-0.345 ± 0.14
T50K	0.028 ± 0.072
T50I	-0.042 ± 0.1
E54W	-0.307 ± 0.11

Variant	abundance fitness
E54V	-0.523 ± 0.063
E54P	-0.545 ± 0.087
E54L	-0.201 ± 0.056
E54Y	-0.715 ± 0.29
E54F	0.025 ± 0.17
E54Q	-0.664 ± 0.25
E54D	-0.122 ± 0.067
E54M	-0.09 ± 0.14
E54G	-0.362 ± 0.064
E54R	-0.615 ± 0.11
E54S	-0.254 ± 0.088
E54K	-0.722 ± 0.36
E54C	-0.811 ± 0.19
E54I	-0.283 ± 0.34
E54A	-0.433 ± 0.059
E54T	-0.737 ± 0.17
E54H	-0.672 ± 0.32
R55H	-0.086 ± 0.16
R55Q	-0.078 ± 0.26
R55S	0.09 ± 0.052
R55C	0.063 ± 0.12
R55W	-0.114 ± 0.076
R55P	0.001 ± 0.11
R55D	0.262 ± 0.082
R55I	0.053 ± 0.1

Variant	abundance fitness
R55F	-0.23 ± 0.15
R55V	0.276 ± 0.083
R55N	0.297 ± 0.15
R55G	0.11 ± 0.059
R55Y	0.05 ± 0.45
R55L	0.128 ± 0.07
R55M	0.128 ± 0.097
R55K	-0.035 ± 0.22
R55A	0.107 ± 0.083
W46K	-1.03 ± 0.15
W46S	-0.91 ± 0.11
W46P	-0.802 ± 0.088
W46G	-0.752 ± 0.066
W46T	-0.756 ± 0.27
W46E	-0.549 ± 0.093
W46V	-0.723 ± 0.061
W46D	-0.536 ± 0.16
W46M	-0.815 ± 0.15
W46H	-0.878 ± 0.4
W46Q	-1.05 ± 0.25
W46I	-0.939 ± 0.15
W46L	-0.887 ± 0.14
W46C	-0.663 ± 0.18

Variants of: B2
Assay: as above
Details: Homo sapiens

Variant	abundance fitness
F6T	-0.436 ± 0.14
F6Q	-0.309 ± 0.12
F6C	-0.132 ± 0.12
F6G	-0.627 ± 0.093
F6M	-0.01 ± 0.14
F6N	-0.29 ± 0.13
F6Y	-0.093 ± 0.091
F6A	-0.267 ± 0.062
F6V	-0.06 ± 0.044
F6S	-0.252 ± 0.071
F6E	-0.551 ± 0.2
F6W	-0.667 ± 0.22
F6K	-0.647 ± 0.17
F6P	-0.477 ± 0.097
F6R	-0.574 ± 0.091
F6D	-0.788 ± 0.26
F6I	-0.269 ± 0.25
F6H	-0.319 ± 0.091
F6L	-0.138 ± 0.078
Q7Y	-0.151 ± 0.14
Q7G	-0.116 ± 0.068
Q7T	-0.236 ± 0.11
Q7V	-0.197 ± 0.061

Variant	abundance fitness
Q7D	-0.204 ± 0.14
Q7R	-0.123 ± 0.068
Q7N	0.016 ± 0.12
Q7L	-0.149 ± 0.079
Q7M	0.028 ± 0.097
Q7A	-0.027 ± 0.065
Q7C	-0.366 ± 0.19
Q7S	-0.127 ± 0.075
Q7H	-0.096 ± 0.14
Q7E	-0.073 ± 0.076
Q7P	-0.961 ± 0.32
Q7I	-0.217 ± 0.15
Q7K	-0.484 ± 0.15
P3A	-0.047 ± 0.084
P3C	0.291 ± 0.12
P3Q	0.14 ± 0.12
P3G	0.116 ± 0.075
P3I	0.209 ± 0.12
P3V	0.064 ± 0.076
P3Y	0.394 ± 0.25
P3E	0.357 ± 0.13
P3T	0.06 ± 0.087
P3K	-0.171 ± 0.18

Variant	abundance fitness
P3F	0.483 ± 0.25
P3R	-0.015 ± 0.078
P3H	0.17 ± 0.058
P3D	0.677 ± 0.23
P3S	0.099 ± 0.1
P3L	0.007 ± 0.069
P3N	0.227 ± 0.087
P3M	0.131 ± 0.12
N5P	-0.403 ± 0.12
N5F	-0.226 ± 0.19
N5S	-0.066 ± 0.071
N5L	-0.026 ± 0.053
N5K	-0.157 ± 0.11
N5D	-0.104 ± 0.17
N5G	-0.075 ± 0.054
N5V	-0.218 ± 0.079
N5M	-0.018 ± 0.089
N5W	-0.14 ± 0.083
N5T	-0.026 ± 0.085
N5C	-0.23 ± 0.079
N5Y	-0.459 ± 0.21
N5Q	-0.051 ± 0.093
N5E	-0.098 ± 0.12

Variant	abundance fitness
N5A	-0.141 ± 0.077
N5H	0.001 ± 0.092
N5I	-0.039 ± 0.082
N5R	-0.169 ± 0.077
E8G	0.007 ± 0.074
E8H	-0.765 ± 0.098
E8M	0.197 ± 0.11
E8W	-0.174 ± 0.1
E8N	-0.152 ± 0.22
E8T	-0.274 ± 0.19
E8D	-0.452 ± 0.16
E8Y	-0.105 ± 0.16
E8C	-0.107 ± 0.1
E8S	-0.191 ± 0.1
E8Q	0.086 ± 0.11
E8V	0.039 ± 0.078
E8I	-0.063 ± 0.17
E8F	-0.096 ± 0.13
E8P	-0.303 ± 0.084
E8A	0.039 ± 0.066
E8R	-0.068 ± 0.085
T9D	-0.131 ± 0.11
T9I	-0.203 ± 0.13

Variant	abundance fitness
T9C	-0.035 ± 0.12
T9G	-0.273 ± 0.098
T9H	-0.021 ± 0.12
T9F	-0.216 ± 0.19
T9E	-0.376 ± 0.12
T9K	-0.473 ± 0.15
H4V	-0.947 ± 0.078
H4N	-0.708 ± 0.1
H4S	-0.92 ± 0.069
H4L	-1.07 ± 0.27
H4Y	-0.716 ± 0.3
H4G	-0.847 ± 0.082
H4A	-0.878 ± 0.17
H4D	-0.595 ± 0.063
H4E	-0.628 ± 0.42
H4W	-1.04 ± 0.12
H4P	-0.915 ± 0.13
H4M	-0.335 ± 0.12
H4Q	-0.804 ± 0.16
H4K	-0.243 ± 0.11
G1W	-0.46 ± 0.34
G1R	-0.187 ± 0.14
G1M	0.477 ± 0.14

Variant	abundance fitness
G1S	0.218 ± 0.14
G1E	0.003 ± 0.1
G1L	-0.027 ± 0.11
G1V	-0.007 ± 0.11
G1D	0.188 ± 0.13
F2Q	-0.282 ± 0.12
F2I	0.097 ± 0.06
F2Y	-0.019 ± 0.066
F2V	-0.282 ± 0.075
F2H	-0.048 ± 0.11
F2A	-0.261 ± 0.095
F2D	-0.086 ± 0.059
F2W	-0.523 ± 0.16
F2K	-0.108 ± 0.085
F2N	0.214 ± 0.093
F2C	-0.214 ± 0.11
F2R	-0.118 ± 0.074
F2E	-0.343 ± 0.1
F2M	-0.051 ± 0.094
F2T	-0.15 ± 0.097
F2G	-0.335 ± 0.068
